{"source": "patent US20250034594A1", "about": "“RNA-GUIDED GENOME RECOMBINEERING AT KILOBASE SCALE” (THE BOARD OF TRUSTEES OF THE LELAND STANFORD JUNIOR …, priority 2021, published 2025)", "molecules": {"B1": {"name": "EcRecT: Escherichia coli RecT SSAP; SEQ ID NO: 171 (Tables 8, 9), SEQ ID NO: 9; positive control in Table 9 (protein)", "chain": "MTKQPPIAKADLQKTQGNRAPAAIKNNDVISFINQPSMKEQLAAALPRHMTAERMIRIATTEIRKVPALGNCDTMSFVSAIVQCSQLGLEPGSALGHAYLLPFGNKNEKSGKKNVQLIIGYRGMIDLARRSGQIASLSARVVREGDEFNFEFGLDEKLIHRPGENEDAPVTHVYAVARLKDGGTQFEVMTRKQIELVRSQSKAGNNGPWVTHWEEMAKKTAIRRLFKYLPVSIEIQRAVSMDEKEPLTIDPADSSVLTGEYSVIDNSEE"}}, "key": {"HSP90AA1 locus": {"tested_on": "HSP90AA1 locus", "experiment": "mKate knock-in gene-editing assay, RecE/RecT homologs, HSP90AA1 locus", "assay_type": "cell-based, human", "conditions": "HEK293 cells, MCP fusion, n=3", "summary_of_the_method": "(§1)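 RecE/RecT homologs from 15 microbial species, codon-optimized and each fused via E-XTEN linker to MCP with NLS, tested for mKate knock-in. Cells transfected by Lipofectamine 3000 (HEK293T 250 ng DNA/well; HeLa, HepG2 400 ng); knock-in efficiency measured by flow cytometry 72 h post-transfection.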"}, "mammalian cells": {"tested_on": "mammalian cells", "experiment": "Arrayed SSAP library screening, cell viability by live cell counts via flow cytometry", "assay_type": "cell-based", "summary_of_the_method": "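Each SSAP plasmid transfected in duplicate (~50% efficiency), with RecT SSAP as positive and Flag-HA as negative control. After three days, mKate-positive cells and viability by flow-cytometric live cell counts were quantified to gauge SSAP fitness effects.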"}, "[1]": {"tested_on": "endogenous genomic loci (DYNLT1, HSP90AA1, AAVS1, ACTB) in HEK293T cells", "experiment": "Kilobase mKate knock-in assay in HEK293T cells (flow cytometry)", "assay_type": "cell-based, human", "conditions": "for knock-in editing activity with dCas9, comparison of SSAPs: dCas9, MS2-MCP", "experimental": "Transfection HEK293T cells were seeded into 96-well plates (Corning) 12-24 hours prior to transfection at a density of 30,000 cells/well, and 250 ng of total DNA was transfected per well. HeLa and HepG2 cells were seeded into 48-well plates (Corning) one day prior to transfection at a density of 50,000 and 30,000 cells/well respectively, and 400 ng of total DNA was transfected per well. Transfections were performed with Lipofectamine 3000 (Life Technologies) following the manufacturer's instructions.\n(§2) Fluorescence-activated cell sorting (FACS) mKate knock-in efficiency was analyzed on a CytoFLEX flow cytometer (Beckman Coulter; Stanford Stem Cell FACS Core). 72 hours after transfection, cells were washed once with PBS and dissociated with TrypLE Express Enzyme (Thermo Fisher Scientific). Cell suspension was then transferred to a 96-well U-bottom plate (Thermo Fisher Scientific) and centrifuged at 300×G for 5 minutes. After removing the supernatant, pelleted cells were resuspended with 50 μl 4% FBS in PBS, and cells were sorted within 30 minutes of preparation.\nHEK293T, Hela, HepG2 and U2OS cells were seeded into 96-well plates (Corning) 12-24 hours prior to transfection at a density of 30,000 cells/well, and 250 ng of total DNA was transfected per well. Cells were transfected with Lipofectamine 3000 (Life Technologies) following the manufacturer's instructions when the cell are ˜70% confluence. In brief, we used 250 ng total DNA, 0.4 ul Lip3000 reagent, mixed with 10 ul of Opti-MEM per well. For the 250 ng DNA, we used 160 ng of dCas9-SSAP guide RNA plasmids (for double sgRNAd design, use equal amount of the two guide RNA plasmids, e.g., 80 ng each), 60 ng of pMCP-RecT or GFP control plasmid (addgene #64539) and 30 ng of PCR template DNA (the PCR primer could be found in Table 7, the template sequence could be found in Supplementary Sequences). Three days later, the cells were analyzed using FACS.\nas §2, with “mKate” for “Fluorescence-activated cell sorting (FACS) mKate”, “transfection or 96 hours after electroporation,” for “transfection,”, “twice” for “once”, “300 g” for “300×G”, “analyzed” for “sorted”, “after” for “of”"}, "[2]": {"tested_on": "endogenous genome targets (ACTB, HSP90AA1)", "experiment": "Arrayed SSAP library screening, mKate knock-in assay (editing efficiency)", "assay_type": "cell-based", "conditions": "average of HSP90 and ACTB, 3 days after transfection", "summary_of_the_method": "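Mammalian cells in duplicate were transfected with SSAP-encoding plasmids, with about 50% transfection efficiency. mKate knock-in positive cells and viability, by flow-cytometric live counts, were quantified three days later. RecT SSAP served as positive control and Flag-HA plasmid as negative control.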"}, "DYNLT1 locus": {"tested_on": "DYNLT1 locus", "experiment": "mKate knock-in gene-editing assay, RecE/RecT homologs, DYNLT1 locus", "assay_type": "cell-based, human", "conditions": "HEK293 cells, MCP fusion, n=3", "summary_of_the_method": "as §1"}}}
{"molecule": "B1", "values": [{"measurement": "Mean mKate+ (%), HSP90AA1", "setting": "HSP90AA1 locus", "value": 6.5467, "unit": "%"}, {"measurement": "Cell Viability (Average, two targets)", "setting": "mammalian cells", "value": 0.8651}, {"measurement": "activity in no-recruitment control", "setting": "[1]; PCP no-recruitment control", "value": "efficiency increases in a recruitment-dependent manner"}, {"measurement": "genomic knock-in efficiency of kilobase cassette, dCas9 editing", "setting": "[1]; SSAP candidate screen, HSP90AA1, DYNLT1, ACTB, human cells", "value": "≤ 6", "unit": "%"}, {"measurement": "knock-in editing activity with dCas9, comparison of SSAPs", "setting": "[1]; human cells", "value": "highest efficiency for dCas9 editing"}, {"measurement": "knock-in editing activity with dCas9, comparison of SSAPs", "setting": "[1]; human cells, listed as RecT", "value": "higher knock-in editing activities relative to other SSAPs"}, {"measurement": "HDR / knock-in efficiency enhancement", "setting": "[1]; five genomic sites (EMX1, VEGFA, HSP90AA1, DYNLT1, AAVS1), wtCas9", "value": "significantly enhanced HDR in all cases"}, {"measurement": "HDR efficiency for kb-scale knock-in", "setting": "[1]; template bearing 600-800 bp total HA, without selection", "value": "over 10%"}, {"measurement": "Editing Efficiency (Normalized, Average, two targets)", "setting": "[2]; fold over negative control (Flag_HA)", "value": 3.807}, {"measurement": "Editing Efficiency (Absolute, Average, two targets)", "setting": "[2]; percent of mKate knock-in", "value": 9.4225}, {"measurement": "Mean mKate+ (%), DYNLT1", "setting": "DYNLT1 locus", "value": 9.9467, "unit": "%"}]}
